Consider two molecules from paper PMC4770247.

For series [1], the target named is T1, NRF2;MAFG (human?;human?, UniProt Q16236;O15525 1-605;1-162, |). As to the kind of experiment: protein binding microarray, anti-NRF2 detection.
Series [2] deals with T1, NRF2;MAFG. Kind of series: protein binding microarray, anti-NRF2 detection. The source holds these as a separate data set.

B1: NQO1.ARE (dsDNA)
DNA 1: CCGCAGTCACAGTGACTCAGCAGAATCTGAGCCACCCAACCGCCCAACTT
DNA 2: AAGTTGGGCGGTTGGGTGGCTCAGATTCTGCTGAGTCACTGTGACTGCGG
modifications: 3' biotin on top strand; nick in top strand between nt 33 and 34
B1: the binding signal with NRF2;MAFG [1] is 1 relative to NQO1.ARE.

B2: 7A (dsDNA)
DNA 1: CCGCAGTCACAGTGACTAAGCAGAATCTGAGCCACCCAACCGCCCAACTT
DNA 2: AAGTTGGGCGGTTGGGTGGCTCAGATTCTGCTTAGTCACTGTGACTGCGG
modifications: 3' biotin on top strand; nick in top strand between nt 33 and 34
Take B2: the binding result with NRF2;MAFG [2] is “binds”.
